This note sets out measurements from US20240287172A1 (SCIRHOM, published 2024).

Positions count from the first letter of the chain named.

B1: antibody 5 (antibody, V domains shown)
VH: QVTLKESGPGILQPSQTLSLTCSFSGFSLSTFGMGVGWIRQPSGKGLEWLAHIWWDDEKYYNSALKSRLTISKATSKNQAFLKIANVDTADTATYYCARISNYGSNYWYFNVWGTGTTVTVSS
VL: QVVLTQSPALMSASPGEKVTMTCSAGSSVSCMYWYQQKPGSSPRVLIYDTSNLASGVPARFTGSGSGTSYSLTISRMEAEDAASYYCQQWNSYPLTFGAGTKLELK
notes: mouse IgG, kappa light chain; also called clone #5; purified antibody 5
B2: antibody 42 (antibody, V domains shown)
VH: B1 VH with F24L, M34R, S63P, A74D, A80V, K83R, S101Q, N111D
VL: LIVLTQSPAIMSASPGEKVTMTCGATSRISYMFWYQQKPGSSPRVLIYDTSNLASGVPVRFSGSGSGTSYSLTISRVEAEDVATYYCQQWNSYPLTFGAGTKLELK
notes: mouse IgG, kappa light chain; also called clone #42; purified antibody 42
B3: antibody 43 (antibody, V domains shown)
VH: B1 VH with T3A, P42S, H52N, E58D, S63P, A74D, T75A, S101G, N111D
VL: B2 VL with L1Q, K18R, G24S, T26N, F33Y, V45L, V77M, V82A, Y86N, N91S
notes: mouse IgG, kappa light chain; also called clone #43; purified antibody 43
B4: antibody 44 (antibody, V domains shown)
VH: B1 VH with G44E, E58D, S63P, A74D, A80I, A85T, D91E, A98S, S101G, N111D
VL: QIVLTQSPAVMSASPGEKVTMTCTASSSVYYMYWYQQTPGSSPRLLIYDTSNLASGVPVRFSGSGSGTSYSLTISRMEAEDAATYYCQQWNTYPLTFGAGTKLELK
notes: mouse IgG, kappa light chain; also called clone #44; purified antibody 44
B5: antibody 22 (antibody, V domains shown)
VH: B1 VH with A80V
VL: B1 VL with C31Y, S84T
notes: mouse IgG, kappa light chain; also called clone #22; purified antibody 22
B6: antibody 3 (antibody, V domains shown)
VH: QVTLKESGPGILQPSQTLSLTCSFSGFSLTTFAMGIGWVRQPSGKGLEWLAHIWWDGEKYNNPVLKSRLTISKDTSKNQVFLRIANVDTPDTATYYCARISSIYYIIDNWGQGTSVTVSS
VL: DIVLTQSPATLSVTPGHSVSLSCRASQSISNNLHWYQKKSHESPRLLIKYVSQSISGIPSRFSGSGSGTDFTLSINSVETEDFGMYFCQQSYNWPLTFGAGTKLELK
notes: mouse IgG, kappa light chain; also called clone #3; purified antibody 3
B7: antibody 34 (antibody, V domains shown)
VH: QVTLKESGPGILQPSQTLSLTCSFSGFSLSTFSLGVGWIRQSSGKGLEWLAHIWWDDEKYYNPALKSRLTISKDTSKNQVFLKIANVDAADTATYYCARAYYSKSYYALDYWGQGTSVTVSS
VL: DIQMTQSPSSLSASLGERVSLTCRASQEISGYLSWLQQKPDGTIKRLIYAASTLDSGVPKRFSGSRSGSDYSLAISSLESEDFADYYCLQYANFPFTFGSGTKLEIK
notes: mouse IgG, kappa light chain; also called clone #34; purified antibody 34
B8: antibody 48 (antibody, V domains shown)
VH: QVQLQQSGTELVRPGTSVKVSCKASGYAFTNYLIEWVKQRPGQGLEWIGVINPGSGFTKYNEKFKGKATLTADKSSSTVYMHLSSLTSEDSAVYFCARGLYRAMDYWGQGTSVTVSS
VL: DIQMTQSPASQSASLGESVTITCLASQTIATWLAWYQQKPGKSPQLLIYGATTLADGVPSRFSGGGSGTKFSFKISSLQAEDFVSYYCQQLYSTPYTFGGGTKLEIK
notes: mouse IgG, kappa light chain; also called clone #48; purified antibody 48
B9: antibody 50 (antibody, V domains shown)
VH: B8 VH with T9A, T16A, T30S, V79A, H82Q
VL: B8 VL with A30G, G50A, T52A, T53S, S85N, L91I
notes: mouse IgG, kappa light chain; also called clone #50; purified antibody 50
B10: antibody 16 (antibody, V domains shown)
VH: QVTLKESGPGILQPSQTLSLTCSFSGFSLSTFALGVGWIRQPSGRGLEWLAHIWWDDDKYYNPALKSRLTISKDTSKNHVFLKIANVDTADTATYYCARITTYYYGMDYWGQGTSVTVSS
VL: B6 VL with T5S, H17D, S22F, S30G, N32H, K38Q, K39E, E42A, V51A
notes: mouse IgG, kappa light chain; also called clone #16; purified antibody 16

The first assay concerns the target T1, hiR2-FL-I566E-T7 (human, UniProt Q6PJF5 1-856).
T1 construct: on MEF-DKO cells; also called hiR2-FL-1566E-T7
T1 sequence: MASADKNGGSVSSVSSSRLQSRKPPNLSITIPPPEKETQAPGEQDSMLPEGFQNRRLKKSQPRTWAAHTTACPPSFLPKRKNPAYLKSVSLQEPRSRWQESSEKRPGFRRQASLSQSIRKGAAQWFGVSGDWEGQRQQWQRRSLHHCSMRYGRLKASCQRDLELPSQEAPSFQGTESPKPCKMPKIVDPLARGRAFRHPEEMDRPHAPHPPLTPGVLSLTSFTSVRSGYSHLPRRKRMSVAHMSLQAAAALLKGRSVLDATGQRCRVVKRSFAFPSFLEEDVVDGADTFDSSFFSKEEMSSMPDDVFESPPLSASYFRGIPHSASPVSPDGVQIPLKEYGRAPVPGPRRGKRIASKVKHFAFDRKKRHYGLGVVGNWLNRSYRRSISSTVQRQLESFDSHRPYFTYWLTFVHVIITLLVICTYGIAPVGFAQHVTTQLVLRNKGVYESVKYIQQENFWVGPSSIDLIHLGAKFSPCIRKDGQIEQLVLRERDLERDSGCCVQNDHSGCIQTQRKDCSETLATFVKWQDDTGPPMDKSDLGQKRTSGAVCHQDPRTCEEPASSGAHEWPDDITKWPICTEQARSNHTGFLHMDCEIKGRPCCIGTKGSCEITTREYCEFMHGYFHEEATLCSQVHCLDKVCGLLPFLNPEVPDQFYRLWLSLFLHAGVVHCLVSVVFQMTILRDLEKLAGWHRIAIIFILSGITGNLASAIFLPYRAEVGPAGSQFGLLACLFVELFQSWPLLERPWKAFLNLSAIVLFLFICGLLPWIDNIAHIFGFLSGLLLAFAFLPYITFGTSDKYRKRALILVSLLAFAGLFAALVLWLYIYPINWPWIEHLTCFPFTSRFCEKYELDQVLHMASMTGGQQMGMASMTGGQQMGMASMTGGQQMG
As to the kind of experiment: FACS, MEF-DKO cells, 3 µg/ml. The source says:
In brief, immortalized MEF-DKO hiR2-FL-G563D-T7, MEF-DKO hiR2-FL-A564P-T7, MEF-DKO hiR2-FL-1566E-T7, MEF-DKO hiR2-FL-D569E-T7, MEF-DKO hiR2-FL-E579K-T7, MEF-DKO hiR2-FL-Q580N-T7, MEF-DKO hiR2-FL-A581S-T7, MEF-DKO hiR2-FL-R582A-T7, MEF-DKO hiR2-FL-S583G-T7, MEF-DKO hiR2-FL-G587N-T7, MEF-DKO hiR2-FL-F588H-T7, MEF-DKO hiR2-FL-L589P-T7, MEF-DKO hiR2-FL-E594V-T7, MEF-DKO hiR2-FL-K596T-T7, MEF-DKO hiR2-FL-S607R-T7, MEF-DKO hiR2-FL-T612S-T7, MEF-DKO hiR2-FL-E617D-T7, MEF-DKO hiR2-FL-H620R-T7, MEF-DKO hiR2-FL-L636M-T7, MEF-DKO hiR2-FL-K638D-T7, MEF-DKO hiR2-FL-1771F-T7, MEF-DKO hiR2-FL-1825V-T7, MEF-DKO hiR2-FL-1828V-T7, MEF-DKO hiR2-FL-N829R-T7, MEF-DKO hiR2-FL-W830C-T7, MEF-DKO hiR2-FL-P831E-T7, MEF-DKO hiR2-FL-I833C-T7, MEF-DKO hiR2-FL-H835F-T7, MEF-DKO hiR2-FL-F8391-T7, MEF-DKO hiR2-FL-S843D-T7, MEF-DKO hiR2-FL-Q853A-T7, MEF-DKO hiR2-FL-V854Q-T7 and MEF-DKO hiR2-FL-R844K-T7 cells were harvested with 10 mM EDTA in PBS, washed and resuspended in FACS buffer (PBS, 3% FBS, 0.05% sodium azide), and seeded in Nunc U-bottom 96-well plates (Thermo Fisher Scientific, USA) at approximately 1×10⁵ cells per well. To pellet cells and remove supernatants, the plates were centrifuged at 1,500 rpm and 4° C. for 3 minutes. For primary staining, cells were resuspended in 100 μl per well of either FACS buffer alone (controls) or the purified antibodies 3, 5, 16, 22, 34, 42, 43, 44, 48, and 50 of the invention at 3 μg/ml in FACS buffer and incubated on ice for 1 hour. Afterwards, plates were centrifuged at 1,500 rpm and 4° C. for 3 minutes and washed twice with 200 μl per well of FACS buffer. For secondary staining, cells were spun down and resuspended in 100 μl per well of PE-conjugated goat anti-mouse IgG F(ab′)2 detection fragment (Dianova, Germany) diluted 1:100 in FACS buffer. Protected from light, the cell suspensions were incubated on ice for 1 hour. Plates were then centrifuged at 1,500 rpm and 4° C. for 3 minutes and washed three times with 200 μl per well of FACS buffer. Finally, cells were resuspended in 150 μl per well of FACS buffer and analyzed using a BD Accuri™ C6 Plus flow cytometer (Becton Dickinson, Germany).
(In flow cytometry, cells or beads pass a laser one at a time.)
For the molecule B1, the “loss of binding vs wild type” value was no less than 95%.
For the molecule B2, the “loss of binding vs wild type” value is no less than 60%.
For the molecule B3, the “loss of binding vs wild type” value was no less than 60%.
The same measure, in the same setting: the result for B4 reads no less than 60%; that for B5, no less than 60%.
Still for that read-out and setting: the result for B6 reads no less than 30%; that for B7, no less than 60%.

The next assay has as its target T2, mouse iR1 wild type (mouse).
T2 construct: wild type, expressed on cells; also called mouse iRhom1 wild type
As to the kind of experiment: FACS, MEF-DKO cells, 3 µg/ml.
With B1, the “loss of binding vs wild type” value is no less than 95%.
Still for that read-out and setting: the result for B2 reads no less than 95%; that for B3, no less than 95%; that for B4, no less than 95%.
The same measure, in the same setting: the result for B5 reads no less than 95%; that for B8, no less than 60%; that for B9, no less than 95%.
Turning to B10, the “loss of binding vs wild type” value is no less than 95%.
For the molecule B6, the “loss of binding vs wild type” value was no less than 95%.
The same measure, in the same setting: in the case of B7 it was no less than 95%.
